The target in assay [1] is 新冠病毒S抗原 (on VSV-SARS-CoV-2 pseudovirus, wild type) (新型冠状病毒 (2019-nCoV / SARS-CoV-2), UniProt P0DTC2 14-1273). The experiment in a line: cell-based or functional assay.
In another assay the target is 带有组氨酸标签的S蛋白RBD (新型冠状病毒 (2019-nCoV / SARS-CoV-2), UniProt P0DTC2 319-541).

The text below walks through data of CN113563475A (INST MICROBIOLOGY CAS, dated 2021).

In general, Kd refers to the concentration at which binding is half-saturated.

B1: 双特异性抗体BS-mAb-2 (bispecific antibody)
heavy: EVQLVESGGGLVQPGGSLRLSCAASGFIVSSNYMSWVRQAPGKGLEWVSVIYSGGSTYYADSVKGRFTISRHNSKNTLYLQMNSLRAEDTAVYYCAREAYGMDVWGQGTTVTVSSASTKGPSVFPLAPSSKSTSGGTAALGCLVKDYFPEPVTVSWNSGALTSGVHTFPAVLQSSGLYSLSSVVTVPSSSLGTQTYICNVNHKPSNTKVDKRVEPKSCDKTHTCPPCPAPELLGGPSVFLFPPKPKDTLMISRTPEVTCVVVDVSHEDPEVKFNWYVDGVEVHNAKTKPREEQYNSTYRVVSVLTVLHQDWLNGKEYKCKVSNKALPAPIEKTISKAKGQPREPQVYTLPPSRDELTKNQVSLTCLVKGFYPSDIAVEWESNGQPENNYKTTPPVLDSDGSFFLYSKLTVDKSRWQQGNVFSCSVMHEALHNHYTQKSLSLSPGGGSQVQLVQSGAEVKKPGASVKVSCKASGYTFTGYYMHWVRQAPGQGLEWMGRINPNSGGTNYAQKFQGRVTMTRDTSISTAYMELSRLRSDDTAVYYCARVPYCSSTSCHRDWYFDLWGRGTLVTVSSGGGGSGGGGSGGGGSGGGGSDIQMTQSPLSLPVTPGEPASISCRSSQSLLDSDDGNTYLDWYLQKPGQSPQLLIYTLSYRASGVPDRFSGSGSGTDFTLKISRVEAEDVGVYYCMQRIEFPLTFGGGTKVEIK
light: DIVMTQSPSFLSASVGDRVTITCRASQGISSYLAWYQQKPGKAPKLLIYAASTLQSGVPSRFSGSGSGTEFTLTISSLQPEDFATYYCQQLNSYPPYTFGQGTKLEIKRTVAAPSVFIFPPSDEQLKSGTASVVCLLNNFYPREAKVQWKVDNALQSGNSQESVTEQDSKDSTYSLSSTLTLSKADYEKHKVYACEVTHQGLSSPVTKSFNRGECS
Regarding B1, the “中和滴度(半数中和浓度，NC50), 2019-nCoV假病毒, Hela-hACE2, luciferase” value (“中和滴度(半数中和浓度，NC50), 2019-nCoV假病毒” for short) in assay [1] came to 0.048 µg/mL.

B2: 单抗B38 (antibody, V domains shown)
VH: EVQLVESGGGLVQPGGSLRLSCAASGFIVSSNYMSWVRQAPGKGLEWVSVIYSGGSTYYADSVKGRFTISRHNSKNTLYLQMNSLRAEDTAVYYCAREAYGMDVWGQGTTVTVSS
VL: DIVMTQSPSFLSASVGDRVTITCRASQGISSYLAWYQQKPGKAPKLLIYAASTLQSGVPSRFSGSGSGTEFTLTISSLQPEDFATYYCQQLNSYPPYTFGQGTKLEIK
For B2, the Kd in the assay with 带有组氨酸标签的S蛋白RBD was determined as 22.5 nM. Besides, in assay [1], the “中和滴度(半数中和浓度，NC50), 2019-nCoV假病毒” value was determined as 0.681 µg/mL.

B3: 双特异性抗体BS-mAb-1 (bispecific antibody)
heavy: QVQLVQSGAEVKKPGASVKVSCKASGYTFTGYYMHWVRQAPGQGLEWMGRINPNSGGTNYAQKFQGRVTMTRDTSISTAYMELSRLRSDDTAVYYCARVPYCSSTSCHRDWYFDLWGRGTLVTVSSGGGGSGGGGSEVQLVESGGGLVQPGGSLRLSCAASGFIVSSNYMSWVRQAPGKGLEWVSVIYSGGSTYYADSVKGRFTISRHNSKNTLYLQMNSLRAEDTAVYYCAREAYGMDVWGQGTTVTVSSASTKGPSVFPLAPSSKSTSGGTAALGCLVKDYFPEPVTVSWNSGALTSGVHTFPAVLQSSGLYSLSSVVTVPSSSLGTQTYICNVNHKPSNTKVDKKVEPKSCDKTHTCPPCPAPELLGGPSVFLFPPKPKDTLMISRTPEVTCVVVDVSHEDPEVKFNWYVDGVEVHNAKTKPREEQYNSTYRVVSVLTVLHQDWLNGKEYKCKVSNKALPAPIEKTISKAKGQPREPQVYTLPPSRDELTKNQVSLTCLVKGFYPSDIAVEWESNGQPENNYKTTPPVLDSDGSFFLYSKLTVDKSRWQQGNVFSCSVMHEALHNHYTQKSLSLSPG
light: DIQMTQSPLSLPVTPGEPASISCRSSQSLLDSDDGNTYLDWYLQKPGQSPQLLIYTLSYRASGVPDRFSGSGSGTDFTLKISRVEAEDVGVYYCMQRIEFPLTFGGGTKVEIKGGGGSGGGGSDIVMTQSPSFLSASVGDRVTITCRASQGISSYLAWYQQKPGKAPKLLIYAASTLQSGVPSRFSGSGSGTEFTLTISSLQPEDFATYYCQQLNSYPPYTFGQGTKLEIKRTVAAPSVFIFPPSDEQLKSGTASVVCLLNNFYPREAKVQWKVDNALQSGNSQESVTEQDSKDSTYSLSSTLTLSKADYEKHKVYACEVTHQGLSSPVTKSFNRGEC
As to B3, in assay [1], the “中和滴度(半数中和浓度，NC50), 2019-nCoV假病毒” value was found to be 0.119 µg/mL.
